Laboratory results reported in US20220153847A1 (Chugai, published 2022).

How the values were obtained:
[1] = molecular target: DQ2.5/omega 2 gliadin peptide on IHW9023 cells (human); experiment: cell-based or functional assay
[2] = molecular target: DQ2.5/omega 1 gliadin peptide on IHW9023 cells (human); experiment: cell-based or functional assay
[3] = molecular target: DQ2.5/alpha 2 gliadin peptide on IHW9023 cells (human); experiment: cell-based or functional assay
[4] = molecular target: DQ2.5/gamma 1 gliadin peptide on IHW9023 cells (human); experiment: cell-based or functional assay
[5] = molecular target: DQ2.5/BC hordein peptide on IHW9023 cells (human); experiment: cell-based or functional assay
[6] = molecular target: DQ2.5/alpha 1b gliadin peptide on IHW9023 cells (human); experiment: cell-based or functional assay
[7] = molecular target: DQ2.5/alpha 1 gliadin peptide on IHW9023 cells (human); experiment: cell-based or functional assay
[8] = molecular target: T1, HLA-DQ2.5 on HLA-DQ2.5-positive PBMC B cells (human, UniProt P01909 24-254; P01920 33-261); experiment: FACS, PBMC B cells; IC17=0%, DQN0139bb//IC17=100%
T1 construct: whole, on cells; also called HLA-DQ2.5+ PBMC B cell
T1 MHC II alpha: not shown
T1 MHC II beta: not shown

[9] = molecular target: T2, HLA-DQ2.5/alpha 1 gliadin peptide complex on Ba/F3 cells (human); experiment: FACS, Ba/F3 cells; IC17=0%, DQN0139bb//IC17=100%;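 note: flow cytometry binding of anti-HLA-DQ antibodies at 5 µg/mL, incubated 30 min at room temperature with Ba/F3 lines presenting HLA-DQ/peptide complexes; antibody tested at 5 microgram/mL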
T2 construct: whole, on cells; also called Ba/F3-HLA-DQ2.5/alpha 1 gliadin; HLA-DQ2.5/a1 gliadin

HLA-DQ2.2 on Ba/F3 cells = molecular target: T3, HLA-DQ2.2 on Ba/F3 cells (human, UniProt P01909 24-216, limits assumed); experiment: FACS, Ba/F3 cells; IC17=0%, DQN0139bb//IC17=100%;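 note: flow cytometry binding of anti-HLA-DQ antibodies at 5 µg/mL, incubated 30 min at room temperature with Ba/F3 lines presenting HLA-DQ/peptide complexes; antibody tested at 5 microgram/mL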
T3 construct: whole, on cells; also called Ba/F3-HLA-DQ2.2
T3 MHC II alpha: not shown
T3 MHC II beta: not shown

[10] = molecular target: T4, HLA-DQ2.5/hordein 1 peptide complex on Ba/F3 cells (human); experiment: FACS, Ba/F3 cells; IC17=0%, DQN0139bb//IC17=100%;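 note: flow cytometry binding of anti-HLA-DQ antibodies at 5 µg/mL, incubated 30 min at room temperature with Ba/F3 lines presenting HLA-DQ/peptide complexes; antibody tested at 5 microgram/mL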
T4 construct: whole, on cells; also called Ba/F3-HLA-DQ2.5/hordein 1

[11] = molecular target: T5, HLA-DQ2.5/gamma 2 gliadin peptide complex on Ba/F3 cells (human); experiment: FACS, Ba/F3 cells; IC17=0%, DQN0139bb//IC17=100%;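 note: flow cytometry binding of anti-HLA-DQ antibodies at 5 µg/mL, incubated 30 min at room temperature with Ba/F3 lines presenting HLA-DQ/peptide complexes; antibody tested at 5 microgram/mL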
T5 construct: whole, on cells; also called Ba/F3-HLA-DQ2.5/gamma 2 gliadin; HLA-DQ2.5/g2 gliadin

[12] = molecular target: T6, HLA-DQ2.5/avenin 1 peptide complex on Ba/F3 cells (human); experiment: FACS, Ba/F3 cells; IC17=0%, DQN0139bb//IC17=100%
T6 construct: whole, on cells; also called Ba/F3-HLA-DQ2.5/avenin 1

[13] = molecular target: T7, HLA-DQ2.5/hordein 2 peptide complex on Ba/F3 cells (human); experiment: FACS, Ba/F3 cells; IC17=0%, DQN0139bb//IC17=100%
T7 construct: whole, on cells; also called Ba/F3-HLA-DQ2.5/hordein 2

[14] = molecular target: T8, HLA-DQ2.5/14mer 1 peptide complex on Ba/F3 cells (human); experiment: FACS, Ba/F3 cells; IC17=0%, DQN0139bb//IC17=100%
T8 construct: whole, on cells; also called Ba/F3-HLA-DQ2.5/14mer 1

[15] = molecular target: T9, HLA-DQ2.5/avenin 3 peptide complex on Ba/F3 cells (human); experiment: FACS, Ba/F3 cells; IC17=0%, DQN0139bb//IC17=100%
T9 construct: whole, on cells; also called Ba/F3-HLA-DQ2.5/avenin 3

[16] = molecular target: T10, HLA-DQ2.5/26mer gliadin peptide complex on Ba/F3 cells (human); experiment: FACS, Ba/F3 cells; IC17=0%, DQN0139bb//IC17=100%
T10 construct: whole, on cells; also called Ba/F3-HLA-DQ2.5/26mer gliadin

[17] = molecular target: T11, HLA-DQ2.5/omega 2 gliadin peptide complex on Ba/F3 cells (human); experiment: FACS, Ba/F3 cells; IC17=0%, DQN0139bb//IC17=100%
T11 construct: whole, on cells; also called Ba/F3-HLA-DQ2.5/omega 2 gliadin; HLA-DQ2.5/w2 gliadin

[18] = molecular target: T12, HLA-DQ2.5/secalin 1 peptide complex on Ba/F3 cells (human); experiment: FACS, Ba/F3 cells; IC17=0%, DQN0139bb//IC17=100%
T12 construct: whole, on cells; also called Ba/F3-HLA-DQ2.5/secalin 1

[19] = molecular target: T13, HLA-DQ2.5/gamma 1 gliadin peptide complex on Ba/F3 cells (human); experiment: FACS, Ba/F3 cells; IC17=0%, DQN0139bb//IC17=100%
T13 construct: whole, on cells; also called Ba/F3-HLA-DQ2.5/gamma 1 gliadin; HLA-DQ2.5/g1 gliadin

[20] = molecular target: T14, HLA-DQ2.5/alpha 3 gliadin peptide complex on Ba/F3 cells (human); experiment: FACS, Ba/F3 cells; IC17=0%, DQN0139bb//IC17=100%
T14 construct: whole, on cells; also called Ba/F3-HLA-DQ2.5/alpha 3 gliadin; HLA-DQ2.5/a3 gliadin

[21] = molecular target: T15, HLA-DQ2.5/alpha 1b gliadin peptide complex on Ba/F3 cells (human); experiment: FACS, Ba/F3 cells; IC17=0%, DQN0139bb//IC17=100%
T15 construct: whole, on cells; also called Ba/F3-HLA-DQ2.5/alpha 1b gliadin; HLA-DQ2.5/a1b gliadin

[22] = molecular target: T16, HLA-DQ2.5/gamma 4b gliadin peptide complex on Ba/F3 cells (human); experiment: FACS, Ba/F3 cells; IC17=0%, DQN0139bb//IC17=100%
T16 construct: whole, on cells; also called Ba/F3-HLA-DQ2.5/gamma 4b gliadin; HLA-DQ2.5/g4b gliadin

[23] = molecular target: T17, HLA-DQ2.5/avenin 2 peptide complex on Ba/F3 cells (human); experiment: FACS, Ba/F3 cells; IC17=0%, DQN0139bb//IC17=100%
T17 construct: whole, on cells; also called Ba/F3-HLA-DQ2.5/avenin 2

[24] = molecular target: T18, HLA-DQ2.5/alpha 2 gliadin peptide complex on Ba/F3 cells (human); experiment: FACS, Ba/F3 cells; IC17=0%, DQN0139bb//IC17=100%
T18 construct: whole, on cells; also called Ba/F3-HLA-DQ2.5/alpha 2 gliadin; HLA-DQ2.5/a2 gliadin

[25] = molecular target: T19, HLA-DQ2.5/omega 1 gliadin peptide complex on Ba/F3 cells (human); experiment: FACS, Ba/F3 cells; IC17=0%, DQN0139bb//IC17=100%
T19 construct: whole, on cells; also called Ba/F3-HLA-DQ2.5/omega 1 gliadin; HLA-DQ2.5/w1 gliadin

[26] = molecular target: T20, HLA-DQ2.5/secalin 2 peptide complex on Ba/F3 cells (human); experiment: FACS, Ba/F3 cells; IC17=0%, DQN0139bb//IC17=100%
T20 construct: whole, on cells; also called Ba/F3-HLA-DQ2.5/secalin 2

[27] = molecular target: T21, HLA-DQ2.5/BC hordein peptide complex on Ba/F3 cells (human); experiment: FACS, Ba/F3 cells; IC17=0%, DQN0139bb//IC17=100%
T21 construct: whole, on cells; also called Ba/F3-HLA-DQ2.5/BC hordein

DQ2.5/alpha 1b gliadin peptide on IHW9023 cells (human), sequence (peptide, as listed by the source): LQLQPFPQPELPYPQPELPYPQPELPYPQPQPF

B1: DQN0344xx//DQN0429cc (bispecific antibody, human IgG1, kappa)
heavy 1: QSLEESGGGLVKPGGTLTLTCTASGFSFSSSYWMCWVRQAPGKGLEWVACVYGGSDTTYYASWTKGRFTISKGSSTTVALQVTSLTAADTATYFCARDPLNYYYYGELNLWGPGTLVTVSSASTKGPSVFPLAPSSKSTSGGTAALGCLVKDYFPEPVTVSWNSGALTSGVHTFPAVLQSSGLYSLSSVVTVPSSSLGTQTYICNVNHKPSNTKVDKRVEPKSCDKTHTCPPCPAPELRRGPSVFLFPPKPKDTLMISRTPEVTCVVVDVSHEDPEVKFNWYVDGVEVHNAKTKPREEQYNSTYRVVSVLTVLHQDWLNGKEYKCKVSNKALPAPIEKTISKAKGQPREPQVYTLPPSREEMTKNQVSLTCLVKGFYPSDIAVEWESNGQPENNYKTTPPYLDSDGSFFLYSKLTVDKSRWQQGNVFSCSVMHEALHNHYTQESLSLSP
light 1: AVVLTQTASPVSAAVGGTVTIRCQATENIYSGLAWYQQKPGQPPKVLIYYVSTLASGVPSRFKGSGSGTEYTLTISGVQCDDAATYYCQTYHDISNVTFGGGTKVEIKRTVAAPSVFIFPPSDEQLKSGTASVVCLLNNFYPREAKVQWKVDNALQSGNSQESVTEQDSKDCTYSLSSTLTLSKADYEKHKVYACEVTHQGLSSPVTKSFNRGEC
heavy 2: QEQLVESGGGLVQPEGSLTLTCTASGFSFSSSYYMCWVRQAPGKGLEWIGCIYTGSGSTDYATWVNGRFTISKTSSTTVTLQMTSLTVADTATYFCARDIGIDYNFWGPGTLVTVSSASTKGPSVFPLAPSSKSTSGGTAALGCLVKDYFPEPVTVSWNSGALTSGVHTFPAVLQSSGLYSLSSVVTVPSSSLGTQTYICNVNHKPSNTKVDKRVEPKSCDKTHTCPPCPAPELRRGPSVFLFPPKPKDTLMISRTPEVTCVVVDVSHEDPEVKFNWYVDGVEVHNAKTKPREEQYNSTYRVVSVLTVLHQDWLNGKEYKCKVSNKALPAPIEKTISKAKGQPREPQVYTLPPSRKEMTKNQVSLTCLVKGFYPSDIAVEWESNGQPENNYKTTPPYLDSDGSFFLYSKLTVDKSRWQQGNVFSCSVMHEALHNHYTQKSLSLSP
light 2: AFELTQTPSFVEARVGGTVTIKCQATQSISSYLNWYQQKPGQPPKLLIYYASTLASGVPSRFKGSGSGTEFTLTISGVECADAATYYCHYGISYVSFGGGTKVEIKRTVAAPSVFIFPPSDEQLKSGTASVVCLLNNFYPREAKVQWKVDNALQSGNSQESVTEQDSKDCTYSLSSTLTLSKADYEKHKVYACEVTHQGLSSPVTKSFNRGEC
[1]
  IC50, Jurkat NFAT-Luc T cell activation: 0.0146 µg/mL
[2]
  IC50, Jurkat NFAT-Luc T cell activation: 0.0397 µg/mL
[3]
  IC50, Jurkat NFAT-Luc T cell activation: 0.00196 µg/mL
[4]
  IC50, Jurkat NFAT-Luc T cell activation: 0.0947 µg/mL
[5]
  IC50, Jurkat NFAT-Luc T cell activation: 0.415 µg/mL
[6]
  IC50, Jurkat NFAT-Luc T cell activation: 0.171 µg/mL
[7]
  IC50, Jurkat NFAT-Luc T cell activation: 0.0498 µg/mL
[8]
  % MFI: 0.4%
[9]
  % MFI: 63.1%
HLA-DQ2.2 on Ba/F3 cells
  % MFI: 0.8%
[10]
  % MFI: 20.3%
[11]
  % MFI: 1.3%
[12]
  % MFI: 14.2%
[13]
  % MFI: 90%
[14]
  % MFI: 19.4%
[15]
  % MFI: 19.6%
[16]
  % MFI: 30.7%
[17]
  % MFI: 19.3%
[18]
  % MFI: 37.8%
[19]
  % MFI: 16.9%
[20]
  % MFI: 18%
[21]
  % MFI: 64.6%
[22]
  % MFI: 6.2%
[23]
  % MFI: 18.3%
[24]
  % MFI: 58.7%
[25]
  % MFI: 43%
[26]
  % MFI: 43.3%
[27]
  % MFI: 18.5%
